# According to patent US20070190075A1, “Hair growth stimulant composition” (Advangen, Inc. c/o National Institute of Advance Science …, priority 2003, published 2007):
# B1: FGF-5: Fibroblast growth factor 5, a cytokine that inhibits hair growth; injected hypodermically as challenge agent (protein, UniProt P12034 21-268, looked up)
# Fibroblast growth factor 5: HGEKRLAPKGQPGPAATDRNPRGSSSRQSSSSAMSSSSASSSPAASLGSQGSGLEQSSFQWSPSGRRTGSLYCRVGIGFHLQIYPDGKVNGSHEANMLSVLEIFAVSQGIVGIRGVFSNKFLAMSKKGKLHASAKFTDDCKFRERFQENSYNTYASAIHRTEKTGREWYVALNKRGKAKRGCSPRVKPQHISTHFLPRFKQSEQPELSFTVTVPEKKKPPSPIKPKIPLSAPRKNTNSVKYRLKFRFG
# Tested on: C3H/He mouse
# Test: Application to mouse after induction of growing stage, with hypodermic FGF-5 injection; shapes and sizes of hair follicles in skin slices
# Format: in vivo
# Settings: FGF-5 5 μg hypodermically for 7 days; vs phosphate-buffered saline injected group
# Protocol: The hair on the back of a C3H/He mouse (purchased from Japan SLC, Inc.) of an age of 8 weeks whose hair cycle was in the resting stage was pulled out to induce the growing stage. For 7 days from the day following the induction, FGF-5 of 5 μg was hypodermically injected at the same place every time, and around the injected place, the plant extracts from rose fruit, etc. (50% ethanol solutions), “tea extract” and “green tea extract” described in Example 1 were each further applied in an amount of 0.02 ml/cm^2 once a day. To a mouse of a control group, 50% ethanol was applied once a day in the same manner. Further, as a control to the FGF-5 hypodermic injection group, a mouse group wherein a phosphate-buffered saline solution was injected, was prepared.
# On the day following the final application, the mouse was killed by dislocation of cervical vertebrae, and the skin at the applied place was taken. The skin thus taken was subjected to fixation with a 10% formalin aqueous solution, then treatment with an ethanol dehydration series, cleaning with xylene and embedding with paraffin. Using a microtome (available from Yamato), the skin was sliced in such a direction that the hair follicle from the top to the bottom could be completely visible, to prepare a skin slice of 4 μm. The resulting skin slice was extended on a silane-coated slide glass (available from Matsunami). […]
molecule,measurement,value
B1,growth of hair follicles after hypodermic FGF-5 injection,growth of the hair follicles was inhibited more than that in the group wherein a phosphate-buffered saline solution had been injected
